From article PMC8141644 come the findings set out here.

Assay [1] addresses PD-L1-ECD (UniProt Q9NZQ7). Nature of the assay: BLI.
The target of assay [2] is CD16a-ECD (human) (UniProt P08637).
For assay [3] the target is unchanged. In words: BLI.

Read-outs that look alike come from different tables or passages of the source.

Chain of CD16a-ECD (human) (P08637 17-208): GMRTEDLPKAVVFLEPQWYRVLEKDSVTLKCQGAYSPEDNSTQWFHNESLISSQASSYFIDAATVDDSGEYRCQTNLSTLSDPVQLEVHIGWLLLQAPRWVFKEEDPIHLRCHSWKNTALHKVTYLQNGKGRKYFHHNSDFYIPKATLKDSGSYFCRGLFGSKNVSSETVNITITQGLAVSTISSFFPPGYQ
Chain of PD-L1-ECD (Q9NZQ7 19-238): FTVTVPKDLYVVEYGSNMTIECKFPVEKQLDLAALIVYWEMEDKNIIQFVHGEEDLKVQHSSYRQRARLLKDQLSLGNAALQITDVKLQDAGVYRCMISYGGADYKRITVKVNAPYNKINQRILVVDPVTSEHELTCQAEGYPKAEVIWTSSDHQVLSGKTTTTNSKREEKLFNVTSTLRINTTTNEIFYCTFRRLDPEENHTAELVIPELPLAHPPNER

In assay [1], ICI12 (from UniProt P01857) showed a Kd of 5.8 nM.

Substance ICI13 (from UniProt P01857) yielded a dissociation constant (Kd) in assay [1] of 3.2 nM.

Consider “bispecific hdFEB4-1-4×hNKE14-8 (bispecific antibody)”, for which the EC50 of the ADCC reporter bioassay (Promega G7010, luciferase; A431 target cells; 0.2 nM – 13.3 nM antibody) in assay [2] came out at 0.362 nM.

For “bispecific hdFEB4-1-4×hNKE14-8 (from UniProt P01857)”, the dissociation constant Kd in assay [3] (bispecific antibody) worked out at 16.5 nM.

The substance hNKE14-8 (from UniProt P01857) yielded a dissociation constant Kd in assay [3] of 15.5 nM.
